Key:
GST-C15HD [1] = biological target: T1, GST-C15HD (Drosophila melanogaster, UniProt Q4V729 192-292); assay: EMSA; EMSA, 6% native polyacrylamide, 32P probes; buffers as in cited refs 22 (Bowl) and 26 (HD), not stated here; conditions: protein: recombinant; tags: GST (N-term, pGex4T); label: 32P (Klenow dCTP)
GST-BowlZF = GST-BowlZF (UniProt Q9VQU9 220-382); assay: as above; conditions: protein: recombinant, tags: GST (N-term, pGex4T)
GST-C15HD [2] = biological target: T1, GST-C15HD; assay: EMSA; up to three complexes; EMSA, 6% native polyacrylamide, 32P probes; buffers as in cited refs 22 (Bowl) and 26 (HD), not stated here; conditions: protein: recombinant; tags: GST (N-term, pGex4T); label: 32P (Klenow dCTP)
GST-C15HD [3] = biological target: T1, GST-C15HD; assay: EMSA; equivalent to CR1; EMSA, 6% native polyacrylamide, 32P probes; buffers as in cited refs 22 (Bowl) and 26 (HD), not stated here; conditions: protein: recombinant; tags: GST (N-term, pGex4T); label: 32P (Klenow dCTP)
GST-DllHD = GST-DllHD (UniProt P20009 120-188); assay: EMSA; strictly monomeric; abolished by increasing GST-C15HD; EMSA, 6% native polyacrylamide, 32P probes; buffers as in cited refs 22 (Bowl) and 26 (HD), not stated here; conditions: protein: recombinant; tags: GST (N-term, pGex4T); label: 32P (Klenow dCTP)
Sequence of GST-DllHD (P20009 120-188): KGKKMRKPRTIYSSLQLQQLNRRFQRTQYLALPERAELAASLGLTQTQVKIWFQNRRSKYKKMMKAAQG

GST-C15HD [4] = biological target: T1, GST-C15HD; assay: EMSA; monomeric and some dimeric complexes; displaces DllHD dose-dependently; EMSA, 6% native polyacrylamide, 32P probes; buffers as in cited refs 22 (Bowl) and 26 (HD), not stated here; conditions: protein: recombinant; tags: GST (N-term, pGex4T); label: 32P (Klenow dCTP)

Sequence of GST-BowlZF (Q9VQU9 220-382): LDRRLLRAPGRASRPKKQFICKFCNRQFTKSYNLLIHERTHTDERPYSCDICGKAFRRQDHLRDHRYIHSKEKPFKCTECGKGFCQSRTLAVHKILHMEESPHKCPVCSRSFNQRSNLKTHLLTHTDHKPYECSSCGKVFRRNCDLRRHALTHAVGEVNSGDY
T1 sequence (Q4V729 entry or part of it): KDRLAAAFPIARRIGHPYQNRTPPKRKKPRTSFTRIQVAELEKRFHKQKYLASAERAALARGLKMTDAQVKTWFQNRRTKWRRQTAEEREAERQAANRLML

B1: CR1S3+4+6m (dsDNA)
DNA 1: TTAAGCTGCAAATCGCGGCGGGCGCCCCGATCACGCCGGGCGGTTCGGGATTAATGGTAATAAGCAGTT
DNA 2: AACTGCTTATTACCATTAATCCCGAACCGCCCGGCGTGATCGGGGCGCCCGCCGCGATTTGCAGCTTAA
B1: no binding (GST-C15HD [1]).

B2: 1Sm (dsDNA)
DNA 1: TACAATTTAAGCCGTC
DNA 2: GACGGCTTAAATTGTA
B2: no binding (GST-BowlZF; label: 32P (Klenow dCTP)).

B3: 2Sm (dsDNA)
DNA 1: AAATTTTAGTCCCAG
DNA 2: CTGGGACTAAAATTT
B3: no binding (GST-BowlZF; label: 32P (Klenow dCTP)).

B4: CR1 (dsDNA)
DNA 1: TTAAGCTGCAAATCGCGGCAATCGTTAAGATCACGAAAAACAATTCAAAATTAATGGTAATAAGCAGTT
DNA 2: AACTGCTTATTACCATTAATTTTGAATTGTTTTTCGTGATCTTAACGATTGCCGCGATTTGCAGCTTAA
B4: binds (GST-C15HD [2]).

B5: CR1DBSm (dsDNA)
DNA 1: TTAAGCTGCAAATCGCGGCAATCGTTAAGATCACGAAAAACAATTCAAACCCCATGGCCCCAAGCAGTT
DNA 2: AACTGCTTGGGGCCATGGGGTTTGAATTGTTTTTCGTGATCTTAACGATTGCCGCGATTTGCAGCTTAA
B5: binds (GST-C15HD [3]).

B6: 1L+ (CR2 large) (dsDNA)
DNA 1: TACAACAGAAGCCGTCTGGC
DNA 2: GCCAGACGGCTTCTGTTGTA
B6: binds (GST-BowlZF; label: 32P (Klenow dCTP)).

B7: OddZF BS (dsDNA)
DNA 1: GCATACAGTAGCACTGATAT
DNA 2: ATATCAGTGCTACTGTATGC
B7: binds (GST-BowlZF; label: 32P 5' end (Klenow, one dCTP)).

B8: CR1 3' half (dsDNA)
DNA 1: CACGAAAAACAATTCAAAATTAATGGTAATAAGCAGTT
DNA 2: AACTGCTTATTACCATTAATTTTGAATTGTTTTTCGTG
B8: binds (GST-DllHD); binds (GST-C15HD [4]).

B9: DBS (Dll-binding sequence) (dsDNA)
DNA 1: TCAAAATTAATGGTAATAAGCA
DNA 2: TGCTTATTACCATTAATTTTGA
B9: no binding (GST-C15HD [1]).

B10: 1Lm (dsDNA)
DNA 1: TACAATTTAAGCCGTAAAGC
DNA 2: GCTTTACGGCTTAAATTGTA
B10: no binding (GST-BowlZF; label: 32P (Klenow dCTP)).

Source: article PMC5402979, “Tissue-specific enhancer repression through molecular integration of cell signaling inputs”
